One block for each molecule: values may come before it.
Key:
[1] = target: T1, transferrin (human, UniProt P02787 20-698); assay: SPR
[2] = target: T1, transferrin; assay: native gel or EMSA

T1 sequence (P02787 20-698): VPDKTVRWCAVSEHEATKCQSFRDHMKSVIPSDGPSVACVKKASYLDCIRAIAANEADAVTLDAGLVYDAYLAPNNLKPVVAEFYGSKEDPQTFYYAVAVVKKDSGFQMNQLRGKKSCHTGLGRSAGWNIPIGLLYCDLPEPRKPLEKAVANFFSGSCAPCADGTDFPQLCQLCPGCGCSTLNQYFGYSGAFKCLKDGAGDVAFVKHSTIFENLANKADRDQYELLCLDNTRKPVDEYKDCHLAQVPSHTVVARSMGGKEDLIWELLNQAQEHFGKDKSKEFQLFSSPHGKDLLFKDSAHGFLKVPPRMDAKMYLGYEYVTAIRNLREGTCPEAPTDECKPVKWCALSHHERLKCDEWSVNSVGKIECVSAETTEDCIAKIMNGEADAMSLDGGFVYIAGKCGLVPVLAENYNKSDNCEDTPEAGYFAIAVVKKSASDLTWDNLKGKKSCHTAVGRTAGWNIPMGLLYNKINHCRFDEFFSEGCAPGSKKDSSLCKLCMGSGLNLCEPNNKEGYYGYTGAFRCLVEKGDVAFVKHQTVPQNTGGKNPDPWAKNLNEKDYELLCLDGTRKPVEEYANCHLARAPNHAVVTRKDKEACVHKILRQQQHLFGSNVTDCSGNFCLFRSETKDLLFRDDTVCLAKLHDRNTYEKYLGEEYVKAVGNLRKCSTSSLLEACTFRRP

Kd [1]: 14 nM
koff [1]: 0.00033 s⁻¹
kon [1]: 24000 M⁻¹ s⁻¹
Molecule: CD14 (SEA518Mu-48T, Uscn) (from UniProt P08571 20-345) (natural protein)

binding result [2]: binds
B1: human CD14 (natural protein, UniProt P08571 20-345, looked up)
chain: TTPEPCELDDEDFRCVCNFSEPQPDWSEAFQCVSAVEVEIHAGGLNLEPFLKRVDADADPRQYADTVKALRVRRLTVGAAQVPAQLLVGALRVLAYSRLKELTLEDLKITGTMPPLPLEATGLALSSLRLRNVSWATGRSWLAELQQWLKPGLKVLSIAQAHSPAFSCEQVRAFPALTSLDLSDNPGLGERGLMAALCPHKFPAIQNLALRNTGMETPTGVCAALAAAGVQPHSLDLSHNSLRATVNPSAPRCMWSSALNSLNLSFAGLEQVPKGLPAKLRVLDLSCNRLNRAPQPDELPEVDNLTLDGNPFLVPGTALPHEGSMN

binding result [1]: binds
Molecule: ELDDEDFRCVCNFSEPQPDWSEAFQCVSAVEVEIHAGGLN [LPS binding region of CD14 N-terminus (CD14N)]
